Assay results as given in patent publication US20250283129A1, “PROCESS” (Sun Pharmaceutical Industries Australia Pty Limited, priority 2021, published 2025).
Where two headings read alike, the source gives them in different places.

How the values were obtained:
thebaine = experiment: Whole cell biotransformation of thebaine to oripavine by E. coli cells expressing CODM variants; assay type: cell-based; conditions: for average thebaine to oripavine yield: FIG. 5; for oripavine yield improved relative to WT CODM: oripavine yield assayed after 4 hours
codeine = experiment: Whole cell biotransformation of codeine to morphine by E. coli cells expressing CODM variants; assay type: cell-based; conditions: for average codeine to morphine yield: FIG. 5, morphine assayed after 30 minutes per legend; for morphine yield improved relative to WT CODM: morphine yield assayed after 30 minutes; for speed of biotransformation with codeine as substrate (in words): time course over two hours
[1] = morphine after 30 minutes, oripavine after 4 hours

B1: 17M: codeine 3-O-demethylase with amino acid substitution I7M (protein, listed as Papaver somniferum)
chain: METPILMKLGNGLSIPSVQELAKLTLAEIPSRYTCTGESPLNNIGASVTDDETVPVIDLQNLLSPEPVVGKLELDKLHSACKEWGFFQLVNHGVDALLMDNIKSEIKGFFNLPMNEKTKYGQQDGDFEGFGQPYIESEDQRLDWTEVFSMLSLPLHLRKPHLFPELPLPFRETLESYLSKMKKLSTVVFEMLEKSLQLVEIKGMTDLFEDGLQTMRMNYYPPCPRPELVLGLTSHSDFSGLTILLQLNEVEGLQIRKEERWISIKPLPDAFIVNVGDILEIMTNGIYRSVEHRAVVNSTKERLSIATFHDSKLESEIGPISSLVTPETPALFKRGRYEDILKENLSRKLDGKSFLDYMRM
average thebaine to oripavine yield (thebaine; after 4 hours): 6%
average codeine to morphine yield (codeine): 32%

B2: E259G: codeine 3-O-demethylase with amino acid substitution E259G (protein, listed as Papaver somniferum)
chain: METPILIKLGNGLSIPSVQELAKLTLAEIPSRYTCTGESPLNNIGASVTDDETVPVIDLQNLLSPEPVVGKLELDKLHSACKEWGFFQLVNHGVDALLMDNIKSEIKGFFNLPMNEKTKYGQQDGDFEGFGQPYIESEDQRLDWTEVFSMLSLPLHLRKPHLFPELPLPFRETLESYLSKMKKLSTVVFEMLEKSLQLVEIKGMTDLFEDGLQTMRMNYYPPCPRPELVLGLTSHSDFSGLTILLQLNEVEGLQIRKEGRWISIKPLPDAFIVNVGDILEIMTNGIYRSVEHRAVVNSTKERLSIATFHDSKLESEIGPISSLVTPETPALFKRGRYEDILKENLSRKLDGKSFLDYMRM
oripavine yield improved relative to WT CODM (thebaine): ~27%
morphine yield improved relative to WT CODM (codeine): ~24%

B3: E259G+R260K: codeine 3-O-demethylase with amino acid substitutions E259G and R260K (protein, listed as Papaver somniferum)
chain: METPILIKLGNGLSIPSVQELAKLTLAEIPSRYTCTGESPLNNIGASVTDDETVPVIDLQNLLSPEPVVGKLELDKLHSACKEWGFFQLVNHGVDALLMDNIKSEIKGFFNLPMNEKTKYGQQDGDFEGFGQPYIESEDQRLDWTEVFSMLSLPLHLRKPHLFPELPLPFRETLESYLSKMKKLSTVVFEMLEKSLQLVEIKGMTDLFEDGLQTMRMNYYPPCPRPELVLGLTSHSDFSGLTILLQLNEVEGLQIRKEGKWISIKPLPDAFIVNVGDILEIMTNGIYRSVEHRAVVNSTKERLSIATFHDSKLESEIGPISSLVTPETPALFKRGRYEDILKENLSRKLDGKSFLDYMRM
product yield / performance compared to WT CODM strain (in words) (thebaine): improved compared to the WT CODM stain

B4: M360I: codeine 3-O-demethylase with amino acid substitution M360I (protein, listed as Papaver somniferum)
chain: METPILIKLGNGLSIPSVQELAKLTLAEIPSRYTCTGESPLNNIGASVTDDETVPVIDLQNLLSPEPVVGKLELDKLHSACKEWGFFQLVNHGVDALLMDNIKSEIKGFFNLPMNEKTKYGQQDGDFEGFGQPYIESEDQRLDWTEVFSMLSLPLHLRKPHLFPELPLPFRETLESYLSKMKKLSTVVFEMLEKSLQLVEIKGMTDLFEDGLQTMRMNYYPPCPRPELVLGLTSHSDFSGLTILLQLNEVEGLQIRKEERWISIKPLPDAFIVNVGDILEIMTNGIYRSVEHRAVVNSTKERLSIATFHDSKLESEIGPISSLVTPETPALFKRGRYEDILKENLSRKLDGKSFLDYMRI
oripavine yield improved relative to WT CODM (thebaine): ~33%
morphine yield improved relative to WT CODM (codeine): ~29%
speed of biotransformation with codeine as substrate (in words) (codeine): faster than the WT CODM control but not as fast as the other two mutant strains

B5: E259D: codeine 3-O-demethylase with amino acid substitution E259D (protein, listed as Papaver somniferum)
chain: METPILIKLGNGLSIPSVQELAKLTLAEIPSRYTCTGESPLNNIGASVTDDETVPVIDLQNLLSPEPVVGKLELDKLHSACKEWGFFQLVNHGVDALLMDNIKSEIKGFFNLPMNEKTKYGQQDGDFEGFGQPYIESEDQRLDWTEVFSMLSLPLHLRKPHLFPELPLPFRETLESYLSKMKKLSTVVFEMLEKSLQLVEIKGMTDLFEDGLQTMRMNYYPPCPRPELVLGLTSHSDFSGLTILLQLNEVEGLQIRKEDRWISIKPLPDAFIVNVGDILEIMTNGIYRSVEHRAVVNSTKERLSIATFHDSKLESEIGPISSLVTPETPALFKRGRYEDILKENLSRKLDGKSFLDYMRM
oripavine yield improved relative to WT CODM (thebaine): ~38%
morphine yield improved relative to WT CODM (codeine): ~30%

B6: E259D+R260K: codeine 3-O-demethylase with amino acid substitutions E259D and R260K (protein, listed as Papaver somniferum)
chain: METPILIKLGNGLSIPSVQELAKLTLAEIPSRYTCTGESPLNNIGASVTDDETVPVIDLQNLLSPEPVVGKLELDKLHSACKEWGFFQLVNHGVDALLMDNIKSEIKGFFNLPMNEKTKYGQQDGDFEGFGQPYIESEDQRLDWTEVFSMLSLPLHLRKPHLFPELPLPFRETLESYLSKMKKLSTVVFEMLEKSLQLVEIKGMTDLFEDGLQTMRMNYYPPCPRPELVLGLTSHSDFSGLTILLQLNEVEGLQIRKEDKWISIKPLPDAFIVNVGDILEIMTNGIYRSVEHRAVVNSTKERLSIATFHDSKLESEIGPISSLVTPETPALFKRGRYEDILKENLSRKLDGKSFLDYMRM
product yield / performance compared to WT CODM strain (in words) (thebaine; [1]): improved compared to the WT CODM stain

B7: P4A: codeine 3-O-demethylase with amino acid substitution P4A (protein, listed as Papaver somniferum)
chain: METAILIKLGNGLSIPSVQELAKLTLAEIPSRYTCTGESPLNNIGASVTDDETVPVIDLQNLLSPEPVVGKLELDKLHSACKEWGFFQLVNHGVDALLMDNIKSEIKGFFNLPMNEKTKYGQQDGDFEGFGQPYIESEDQRLDWTEVFSMLSLPLHLRKPHLFPELPLPFRETLESYLSKMKKLSTVVFEMLEKSLQLVEIKGMTDLFEDGLQTMRMNYYPPCPRPELVLGLTSHSDFSGLTILLQLNEVEGLQIRKEERWISIKPLPDAFIVNVGDILEIMTNGIYRSVEHRAVVNSTKERLSIATFHDSKLESEIGPISSLVTPETPALFKRGRYEDILKENLSRKLDGKSFLDYMRM
product yield / performance compared to WT CODM strain (in words) (thebaine; [1]): minor improvement in product yield

B8: 15K: codeine 3-O-demethylase with amino acid substitution I5K (protein, listed as Papaver somniferum)
chain: METPKLIKLGNGLSIPSVQELAKLTLAEIPSRYTCTGESPLNNIGASVTDDETVPVIDLQNLLSPEPVVGKLELDKLHSACKEWGFFQLVNHGVDALLMDNIKSEIKGFFNLPMNEKTKYGQQDGDFEGFGQPYIESEDQRLDWTEVFSMLSLPLHLRKPHLFPELPLPFRETLESYLSKMKKLSTVVFEMLEKSLQLVEIKGMTDLFEDGLQTMRMNYYPPCPRPELVLGLTSHSDFSGLTILLQLNEVEGLQIRKEERWISIKPLPDAFIVNVGDILEIMTNGIYRSVEHRAVVNSTKERLSIATFHDSKLESEIGPISSLVTPETPALFKRGRYEDILKENLSRKLDGKSFLDYMRM
oripavine yield improved relative to WT CODM (thebaine): ~79%
morphine yield improved relative to WT CODM (codeine): ~58%
speed of biotransformation with codeine as substrate (in words) (codeine): faster than the WT CODM control
yield of morphine (codeine; time course, after one hour): ~94%

B9: R260T: codeine 3-O-demethylase with amino acid substitution R260T (protein, listed as Papaver somniferum)
chain: METPILIKLGNGLSIPSVQELAKLTLAEIPSRYTCTGESPLNNIGASVTDDETVPVIDLQNLLSPEPVVGKLELDKLHSACKEWGFFQLVNHGVDALLMDNIKSEIKGFFNLPMNEKTKYGQQDGDFEGFGQPYIESEDQRLDWTEVFSMLSLPLHLRKPHLFPELPLPFRETLESYLSKMKKLSTVVFEMLEKSLQLVEIKGMTDLFEDGLQTMRMNYYPPCPRPELVLGLTSHSDFSGLTILLQLNEVEGLQIRKEETWISIKPLPDAFIVNVGDILEIMTNGIYRSVEHRAVVNSTKERLSIATFHDSKLESEIGPISSLVTPETPALFKRGRYEDILKENLSRKLDGKSFLDYMRM
less oripavine generated than WT CODM (thebaine; after 4 hours): ~29%
less morphine generated than WT CODM (codeine; after 30 minutes): ~28%

B10: WT CODM: wild type codeine 3-O-demethylase (UniProtKB: D4N502), N-terminally fused to 6H and MBP, expressed in E. coli (protein, UniProt D4N502 1-360, looked up)
Codeine O-demethylase: METPILIKLGNGLSIPSVQELAKLTLAEIPSRYTCTGESPLNNIGASVTDDETVPVIDLQNLLSPEPVVGKLELDKLHSACKEWGFFQLVNHGVDALLMDNIKSEIKGFFNLPMNEKTKYGQQDGDFEGFGQPYIESEDQRLDWTEVFSMLSLPLHLRKPHLFPELPLPFRETLESYLSKMKKLSTVVFEMLEKSLQLVEIKGMTDLFEDGLQTMRMNYYPPCPRPELVLGLTSHSDFSGLTILLQLNEVEGLQIRKEERWISIKPLPDAFIVNVGDILEIMTNGIYRSVEHRAVVNSTKERLSIATFHDSKLESEIGPISSLVTPETPALFKRGRYEDILKENLSRKLDGKSFLDYMRM
modifications: N-terminal His6-MBP fusion
notes: wild type codeine 3-O-demethylase (UniProtKB: D4N502), N-terminally fused to 6H and MBP, expressed in E. coli
average thebaine to oripavine yield (thebaine; after 4 hours): 47%
average codeine to morphine yield (codeine): 47%

B11: T3K: codeine 3-O-demethylase with amino acid substitution T3K (protein, listed as Papaver somniferum)
chain: MEKPILIKLGNGLSIPSVQELAKLTLAEIPSRYTCTGESPLNNIGASVTDDETVPVIDLQNLLSPEPVVGKLELDKLHSACKEWGFFQLVNHGVDALLMDNIKSEIKGFFNLPMNEKTKYGQQDGDFEGFGQPYIESEDQRLDWTEVFSMLSLPLHLRKPHLFPELPLPFRETLESYLSKMKKLSTVVFEMLEKSLQLVEIKGMTDLFEDGLQTMRMNYYPPCPRPELVLGLTSHSDFSGLTILLQLNEVEGLQIRKEERWISIKPLPDAFIVNVGDILEIMTNGIYRSVEHRAVVNSTKERLSIATFHDSKLESEIGPISSLVTPETPALFKRGRYEDILKENLSRKLDGKSFLDYMRM
product yield / performance compared to WT CODM strain (in words) (thebaine; [1]): minor improvement in product yield
